Laboratory results as given in paper PMC2191965 (The Journal of Experimental Medicine, 1995).

What was measured:
I-As = molecular target: T1, I-As (Mus musculus, UniProt P06345+P14437); type: binding; details: purified I-As; compared with ROIV or with wild-type peptide
T1 sequence (P14437 1-233): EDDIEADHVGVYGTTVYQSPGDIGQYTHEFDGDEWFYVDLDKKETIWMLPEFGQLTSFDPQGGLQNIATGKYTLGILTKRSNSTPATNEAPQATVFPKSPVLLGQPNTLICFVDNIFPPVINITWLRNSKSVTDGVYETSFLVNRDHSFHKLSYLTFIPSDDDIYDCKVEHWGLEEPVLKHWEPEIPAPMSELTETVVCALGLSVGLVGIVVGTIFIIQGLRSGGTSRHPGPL
T1 sequence (P06345 28-263): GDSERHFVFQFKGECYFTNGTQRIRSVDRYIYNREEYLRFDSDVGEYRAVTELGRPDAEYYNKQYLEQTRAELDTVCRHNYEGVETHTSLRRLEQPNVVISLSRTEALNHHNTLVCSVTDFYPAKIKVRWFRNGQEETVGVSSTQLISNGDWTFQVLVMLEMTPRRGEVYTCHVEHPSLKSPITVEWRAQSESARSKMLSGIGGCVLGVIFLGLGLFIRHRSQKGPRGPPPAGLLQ

I-Ab = molecular target: T2, I-Ab (Mus musculus, UniProt P14434+P14483); details: purified I-Ab; compared with binding to I-As or with wild-type peptide
T2 sequence (P14434 24-256): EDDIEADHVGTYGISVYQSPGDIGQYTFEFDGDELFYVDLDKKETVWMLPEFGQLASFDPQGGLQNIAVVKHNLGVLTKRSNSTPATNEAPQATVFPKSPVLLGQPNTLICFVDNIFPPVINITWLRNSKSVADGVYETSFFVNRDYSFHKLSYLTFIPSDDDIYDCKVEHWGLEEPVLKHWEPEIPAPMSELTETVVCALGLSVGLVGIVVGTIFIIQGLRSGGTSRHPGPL
T2 sequence (P14483 28-265): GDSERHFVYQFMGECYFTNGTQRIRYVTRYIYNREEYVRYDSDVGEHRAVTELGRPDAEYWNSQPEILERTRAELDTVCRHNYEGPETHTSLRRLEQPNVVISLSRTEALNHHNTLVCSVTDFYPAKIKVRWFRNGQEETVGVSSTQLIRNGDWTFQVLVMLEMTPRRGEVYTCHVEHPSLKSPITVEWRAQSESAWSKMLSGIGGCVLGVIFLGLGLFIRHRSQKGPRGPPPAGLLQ

myelin basic protein 81-100: I-As-restricted epitope myelin basic protein 81-100 (HPADPGNRPHLIRLFSRDAP; UniProt P04370 81-100, looked up, fragment)
Binding to I-As, in words (I-As): as well as the ROW | Binding to I-Ab, in words (I-Ab): far less affinity
